Positions count from the first letter of the chain named. Numbers in names are those of the source. Each block holds one molecule with its values, some of them ahead of it.
How the values were obtained:
Test in all cases: photometric initial rates, Michaelis-Menten fit
jrPPO2 = molecular target: T1, jrPPO2 (Juglans regia, UniProt A0A2I4DDQ0, D361N/F398L/S401P/D582N); format: biochemical; details: pH 6.0, 50 mM sodium phosphate, 2.5 mM SDS as activator, 25 °C
T1 construct: gene LOC108979139; latent enzyme (active domain plus C-terminal domain, no transit peptide), E. coli, pGEX-6P-1, N-terminal GST tag (absent by mass)
Description: (§1) photometric initial rates, Michaelis-Menten fit on jrPPO2

jrPPO1 = molecular target: T2, jrPPO1 (Juglans regia, UniProt C0LU17); format: biochemical; details: pH 6.0, 50 mM sodium phosphate, 2.0 mM SDS as activator, 25 °C
T2 construct: gene PPO1; latent enzyme (active domain plus C-terminal domain, no transit peptide), expressed in E. coli from pGEX-6P-1 with N-terminal GST tag (tag absent by mass)
T2 sequence (C0LU17 entry or part of it): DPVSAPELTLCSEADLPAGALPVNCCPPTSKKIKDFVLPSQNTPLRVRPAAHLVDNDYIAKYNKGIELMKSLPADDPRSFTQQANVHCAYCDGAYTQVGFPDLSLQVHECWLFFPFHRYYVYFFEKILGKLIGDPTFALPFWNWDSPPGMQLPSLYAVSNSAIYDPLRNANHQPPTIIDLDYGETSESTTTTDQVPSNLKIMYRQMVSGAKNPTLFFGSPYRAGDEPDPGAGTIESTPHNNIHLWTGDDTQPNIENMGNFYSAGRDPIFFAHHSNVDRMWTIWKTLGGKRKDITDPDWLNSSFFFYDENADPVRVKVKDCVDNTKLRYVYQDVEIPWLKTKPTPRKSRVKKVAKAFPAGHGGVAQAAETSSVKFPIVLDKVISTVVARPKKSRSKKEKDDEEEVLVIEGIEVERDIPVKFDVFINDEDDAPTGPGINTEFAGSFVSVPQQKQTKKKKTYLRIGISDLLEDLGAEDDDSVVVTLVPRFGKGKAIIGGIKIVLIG
Description: (§2) photometric initial rates, Michaelis-Menten fit on jrPPO1

[1] = substrate: NCCc1ccc(O)c(O)c1; format: biochemical, Juglans regia; details: pH 6.0, 50 mM sodium phosphate, 2.0 mM SDS as activator, 25 °C
Description: as §2

[2] = substrate: CCOC(=O)c1cc(O)c(O)c(O)c1; format: biochemical, Juglans regia; details: pH 6.0, 50 mM sodium phosphate, 2.5 mM SDS as activator, 25 °C
Description: as §1

[3] = substrate: NCCc1ccc(O)c(O)c1; format: biochemical, Juglans regia; details: pH 6.0, 50 mM sodium phosphate, 2.5 mM SDS as activator, 25 °C
Description: as §1

[4] = substrate: NCCc1ccc(O)cc1; format: biochemical, Juglans regia; details: pH 6.0, 50 mM sodium phosphate, 2.5 mM SDS as activator, 25 °C
Description: as §1

[5] = substrate: N[C@@H](Cc1ccc(O)c(O)c1)C(=O)O; format: biochemical, Juglans regia; details: pH 6.0, 50 mM sodium phosphate, 2.5 mM SDS as activator, 25 °C
Description: as §1

[6] = substrate: O=C(O)/C=C/c1ccc(O)c(O)c1; format: biochemical, Juglans regia; details: pH 6.0, 50 mM sodium phosphate, 2.5 mM SDS as activator, 25 °C
Description: as §1

[7] = substrate: O=C(O)/C=C/c1ccc(O)cc1; format: biochemical, Juglans regia; details: pH 6.0, 50 mM sodium phosphate, 2.5 mM SDS as activator, 25 °C
Description: as §1

[8] = substrate: O=C(O)Cc1ccc(O)cc1; format: biochemical, Juglans regia; details: pH 6.0, 50 mM sodium phosphate, 2.5 mM SDS as activator, 25 °C
Description: as §1

[9] = substrate: O=C(O)c1cc(O)c(O)c(O)c1; format: biochemical, Juglans regia; details: pH 6.0, 50 mM sodium phosphate, 2.5 mM SDS as activator, 25 °C
Description: as §1

[10] = substrate: O=C(O)c1ccc(O)c(O)c1; format: biochemical, Juglans regia; details: pH 6.0, 50 mM sodium phosphate, 2.5 mM SDS as activator, 25 °C
Description: as §1

[11] = substrate: O=C1c2c(O)cc(O)cc2O[C@H](c2ccc(O)c(O)c2)[C@H]1O; format: biochemical, Juglans regia; details: pH 6.0, 50 mM sodium phosphate, 2.5 mM SDS as activator, 10% DMSO, 25 °C
Description: as §1

Km (jrPPO2): 1000 ± 120 µM | Km (jrPPO1): 1200 ± 130 µM
Molecule: Oc1cccc(O)c1O [compound 1, Pyrogallol]

B1: jrPPO1 (Juglans regia; N340G) (protein)
chain: DPVSAPELTLCSEADLPAGALPVNCCPPTSKKIKDFVLPSQNTPLRVRPAAHLVDNDYIAKYNKGIELMKSLPADDPRSFTQQANVHCAYCDGAYTQVGFPDLSLQVHECWLFFPFHRYYVYFFEKILGKLIGDPTFALPFWNWDSPPGMQLPSLYAVSNSAIYDPLRNANHQPPTIIDLDYGETSESTTTTDQVPSNLKIMYRQMVSGAKNPTLFFGSPYRAGDEPDPGAGTIESTPHGNIHLWTGDDTQPNIENMGNFYSAGRDPIFFAHHSNVDRMWTIWKTLGGKRKDITDPDWLNSSFFFYDENADPVRVKVKDCVDNTKLRYVYQDVEIPWLKTKPTPRKSRVKKVAKAFPAGHGGVAQAAETSSVKFPIVLDKVISTVVARPKKSRSKKEKDDEEEVLVIEGIEVERDIPVKFDVFINDEDDAPTGPGINTEFAGSFVSVPQQKQTKKKKTYLRIGISDLLEDLGAEDDDSVVVTLVPRFGKGKAIIGGIKIVLIG
notes: latent enzyme (active domain plus C-terminal domain, no transit peptide), expressed in E. coli from pGEX-6P-1 with N-terminal GST tag (tag absent by mass)
Km [1]: 490 ± 70 µM | kcat [1]: 300 ± 16.5 s⁻¹ | kcat/Km [1]: 612000 ± 93700 M⁻¹ s⁻¹

B2: jrPPO2 (Juglans regia; D361N/D582N/F398L/S401P) (protein)
chain: APVSAPDITKCGKADFPAGAKPTNCCPPPSTKIIDFKLPTKNSPLRVRPAAHLADKEYIAKYNKAIELMKALPADDPRNFTQQANVHCAYCDGAYEQVGFPNLDLQVHNSWLFFPFHRYYLYFYEKILGKLIGDPTFALPFWNWDAPAGMQLPAMYANPKSSLYDALRNANHQPPTLMDLDYNGTDEETTSQDQLSANLSIMYRQMVSNGKNAKLFLGSAYRAGDEPDPGAGSIENIPHGPVHIWTGDNTQPNLENMGNFYSAGRDPIFFAHHSNVDRMWSIWKTLGGKRTDLTEPDWLNAGFLFYDENGQAVRVKVKDCLDTTKLGYVYQDVDLPWLKSKPTRKSKLKKVAKFFHLGHQGDVAIAAETSPSVNFPIVLDKVISTVVARPRKSRSKKEKEDEEEVLVIGAIEFDRDAPVKFDVFINDEDDSPTTRPDKTEFAGSFVNVPHKHKHGKKMNTCLRLGISDLLEDLDAENDDTIVVTLVPRYGKGLASINGIKIELLD
notes: latent enzyme (active domain plus C-terminal domain, no transit peptide), E. coli, pGEX-6P-1, N-terminal GST tag (absent by mass)
Km [2]: 6600 ± 790 µM | kcat [2]: 59.5 ± 3.89 s⁻¹ | kcat/Km [2]: 9020 ± 1220 M⁻¹ s⁻¹ | Km [3]: 790 ± 170 µM | kcat [3]: 186 ± 19.1 s⁻¹ | kcat/Km [3]: 235000 ± 56100 M⁻¹ s⁻¹ | Km [4]: 490 ± 110 µM | kcat [4]: 9.14 ± 0.83 s⁻¹ | kcat/Km [4]: 18700 ± 4650 M⁻¹ s⁻¹ | Km [5]: 5660 ± 700 µM | kcat [5]: 132 ± 7.05 s⁻¹ | kcat/Km [5]: 23300 ± 3140 M⁻¹ s⁻¹ | Km [6]: 210 ± 20 µM | kcat [6]: 8.37 ± 0.2 s⁻¹ | kcat/Km [6]: 39900 ± 3910 M⁻¹ s⁻¹ | Km [7]: 940 ± 120 µM | kcat [7]: 0.37 ± 0.02 s⁻¹ | kcat/Km [7]: 390 ± 50 M⁻¹ s⁻¹ | Km [8]: 4430 ± 550 µM | kcat [8]: 32.3 ± 2.18 s⁻¹ | kcat/Km [8]: 7290 ± 1030 M⁻¹ s⁻¹ | Km [9]: 180 ± 40 µM | kcat [9]: 2.07 ± 0.18 s⁻¹ | kcat/Km [9]: 11500 ± 2740 M⁻¹ s⁻¹ | Km [10]: 90 ± 20 µM | kcat [10]: 9.84 ± 0.52 s⁻¹ | kcat/Km [10]: 109000 ± 25000 M⁻¹ s⁻¹ | Km [11]: 920 ± 150 µM | kcat [11]: 19.6 ± 2.04 s⁻¹ | kcat/Km [11]: 21300 ± 4120 M⁻¹ s⁻¹

B3: jrPPO2 (Juglans regia; D361N/D582N/F398L/G345N/S401P) (protein)
chain: B2 chain with G240N
notes: as for B2
Km [4]: 210 ± 60 µM | kcat [4]: 10.9 ± 0.71 s⁻¹ | kcat/Km [4]: 51900 ± 15300 M⁻¹ s⁻¹
